Molecular target: OsDREB2A (Oryza sativa, UniProt A2WL19 SEQ:1-163)
Test: EMSA; room temperature 20 min, 5% PAGE 0.25x TBE
Conditions: tags: N-terminal GST (pGEX-4T-1), cDNA nt 334-822; label: 32P
Experimental: The E. coli into which the protein had been induced was suspended in 18 ml of buffer (10 mM Tris-HCl, pH 8.0, 0.1 mM EDTA, 5 mM MgCl₂, 400 mM NaCl, 5% glycerol, 0.1 mM phenylmethylsulfonyl fluoride, 0.1 mM dithiothreitol). Then, 1% Triton X-100 and 1 mM EDTA were added thereto. After the cells were disrupted by sonication, the disrupted material was centrifuged at 20,000 g for 1 hour. Then, the protein was purified from the supernatant using glutathione-Sepharose (Pharmacia). The resultant fusion protein was incubated at room temperature for 20 minutes using the DRE sequence-containing 75 bp DNA fragment (SEQ ID NO: 16) labeled with ³²P as a probe. This mixture was electrophoresed using 5% polyacrylamide containing 0.25×Tris-borate-EDTA at 120 V for 90 minutes. As a result of this gel shift assay, those bands which migrated to the back were detected. When the DNA fragment containing the mutated DRE sequence was used as a probe, such bands were not detected. Thus, it became evident that OsDREB1A and OsDREB2A proteins specifically bind to the DRE sequence (FIG. 4).

Sequence of OsDREB2A (A2WL19 1-163): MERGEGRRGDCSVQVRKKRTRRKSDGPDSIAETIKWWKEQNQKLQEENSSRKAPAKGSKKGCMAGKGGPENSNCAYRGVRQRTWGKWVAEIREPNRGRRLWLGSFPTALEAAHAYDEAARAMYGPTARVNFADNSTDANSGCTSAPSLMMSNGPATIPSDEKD

B1: DRE 75 bp fragment of rd29A promoter (dsDNA)
DNA 1: ACATCAGTTTGAAAGAAAAGGGAAAAAAAGAAAAAATAAATAAAAGATATACTACCGACATGAGTTCCAAAAAGC
DNA 2: GCTTTTTGGAACTCATGTCGGTAGTATATCTTTTATTTATTTTTTCTTTTTTTCCCTTTTCTTTCAAACTGATGT
- binding result: binds

Reference: US20040191910, “Genes encoding plant transcription factors” (International Research Center for Agricultural Sciences, published 2004)
